Biological target: T1, Pepscan peptide 3 of CSP (amino acids 25-37) (Aspergillus flavus)
T1 peptide: YDDPDCDPGFTCR
Assay: Pepscan-ELISA

B1: Aspergillus-specific monoclonal antibody AP10 (mAbAP10) (antibody, V domains shown)
VH: DVQLVESGGGLVQPGGSRKLSCAASGFTFSSFGMHWVRQAPEKGLEWVAYINGGSGTIYYADTVKGRFTISRDNPRNTLFLQMETTSLRSEDTAMYYCARGGDDPFAYWGQGTLVTV
VL: IQMTQSPSSLSAYLGDKVTITCMASQDINNHIAWYQLKPGKGPRLLIHYTSTLHPGIPSRFSGSGSGRDYSFSISDLEPEDIATYYCLQYDNLRTFGGGTKLEIK
notes: also called CSP-specific mAbAP10
binding efficiency relative to peptide 4: 2 fold

From patent US20180105832A1 (FRAUNHOFER GESELLSCHAFT ZUR FOERDERUNG DER ANGEWANDTEN …, published 2018)
